Measured values from patent US20030068675, “Position dependent recognition of GNN nucleotide triplets by zinc fingers” (published 2003).
Where a chain is given by its changes, count along the chain named.

What was measured:
Experiment in all cases: EMSA
Conditions in all cases: tags: MBP fusion
[1] = biological target: T1, ZFP SBS#384 (synthetic)
T1 chain: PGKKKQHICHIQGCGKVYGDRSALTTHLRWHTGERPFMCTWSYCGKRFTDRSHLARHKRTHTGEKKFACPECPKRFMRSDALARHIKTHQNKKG
Protocol: (§1) Affinity is measured by titrating purified protein against a fixed amount of labeled double-stranded oligonucleotide target. The target typically comprises the natural binding site sequence flanked by the 3 bp found in the natural sequence and additional, constant flanking sequences. The natural binding site is typically 9 bp for a three-finger protein and 2×9 bp +intervening bases for a six finger ZFP. […] For the assay the target is added at a concentration of 1 nM or lower (the actual concentration is kept at least 10-fold lower than the expected dissociation constant), purified ZFPs are added at various concentrations, and the reaction is allowed to equilibrate for at least 45 min. In addition the reaction mixture also contains 10 mM Tris (pH 7.5), 100 mM KCl, 1 mM MgCl2, 0.1 mM ZnCl2, 5 mM DTT, 10% glycerol, 0.02% BSA. (NB: in earlier assays poly d(IC) was also added at […].) The equilibrated reactions are loaded onto a 10% polyacrylamide gel, which has been pre-run for 45 min in Tris/glycine buffer, then bound and unbound labeled target is resolved by electrophoresis at 150V.

[2] = biological target: ZFP SBS#352 (synthetic)
ZFP SBS#352 (synthetic), sequence (chain, as listed by the source): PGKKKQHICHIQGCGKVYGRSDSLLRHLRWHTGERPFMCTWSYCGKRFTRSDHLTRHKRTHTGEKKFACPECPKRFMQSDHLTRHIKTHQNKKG
Protocol: as §1

[3] = biological target: T2, ZFP SBS#350 (synthetic)
T2 chain: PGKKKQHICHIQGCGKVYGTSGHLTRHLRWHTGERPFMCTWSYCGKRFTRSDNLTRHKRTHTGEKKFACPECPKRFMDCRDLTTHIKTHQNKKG
Protocol: as §1

[4] = biological target: T3, ZFP SBS#381 (synthetic)
T3 chain: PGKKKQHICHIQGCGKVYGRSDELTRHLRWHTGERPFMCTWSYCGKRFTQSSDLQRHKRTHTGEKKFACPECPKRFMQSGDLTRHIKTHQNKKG
Protocol: as §1

[5] = biological target: ZFP SBS#361 (synthetic)
ZFP SBS#361 (synthetic), sequence (chain, as listed by the source): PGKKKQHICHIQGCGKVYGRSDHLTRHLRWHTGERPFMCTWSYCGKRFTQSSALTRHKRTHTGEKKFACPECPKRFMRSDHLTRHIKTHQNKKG
Protocol: as §1

[6] = biological target: ZFP SBS#363 (synthetic)
Protocol: as §1

[7] = biological target: T4, ZFP SBS#307 (synthetic)
T4 chain: T3 chain with T25R, S52G, D53N, D81N, T83S
Protocol: as §1

[8] = biological target: T5, ZFP SBS#298 (synthetic)
T5 chain: T3 chain with R20Q, S21T, D22G, T25R, Q50R, S52D, D53N, R56K, Q78T, T83S
Protocol: as §1

[9] = biological target: T6, ZFP SBS#306 (synthetic)
T6 chain: T3 chain with R20Q, S21T, D22A, E23S, Q50R, S52D, D53N, R56T, G80S, T83S
Protocol: as §1

[10] = biological target: ZFP SBS#303 (synthetic)
ZFP SBS#303 (synthetic), sequence (chain, as listed by the source): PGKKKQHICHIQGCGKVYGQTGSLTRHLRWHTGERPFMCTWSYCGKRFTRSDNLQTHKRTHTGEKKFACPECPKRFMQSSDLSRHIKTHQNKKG
Protocol: as §1

[11] = biological target: T7, ZFP SBS#304 (synthetic)
T7 chain: T3 chain with R20Q, S21T, D22A, E23D, Q50R, S52D, D53N, R56T, G80S, T83S
Protocol: as §1

[12] = biological target: ZFP SBS#302 (synthetic)
ZFP SBS#302 (synthetic), sequence (chain, as listed by the source): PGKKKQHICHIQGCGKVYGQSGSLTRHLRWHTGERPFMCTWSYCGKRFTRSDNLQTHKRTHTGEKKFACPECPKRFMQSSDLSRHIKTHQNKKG
Protocol: as §1

[13] = biological target: ZFP SBS#305 (synthetic)
ZFP SBS#305 (synthetic), sequence (chain, as listed by the source): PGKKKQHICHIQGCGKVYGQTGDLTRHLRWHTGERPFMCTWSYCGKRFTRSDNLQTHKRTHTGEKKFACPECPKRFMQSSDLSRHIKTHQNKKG
Protocol: as §1

[14] = biological target: T8, ZFP SBS#301 (synthetic)
T8 chain: T3 chain with R20Q, D22A, E23D, T25R, Q50R, S52D, D53N, R56T, G80S, T83S
Protocol: as §1

[15] = biological target: T9, ZFP SBS#300 (synthetic, UniProt P08047)
T9 chain: T3 chain with R20Q, S21T, D22A, E23D, T25R, Q50R, S52D, D53N, G80S, T83S
Protocol: as §1

[16] = biological target: ZFP SBS#299 (synthetic)
ZFP SBS#299 (synthetic), sequence (chain, as listed by the source): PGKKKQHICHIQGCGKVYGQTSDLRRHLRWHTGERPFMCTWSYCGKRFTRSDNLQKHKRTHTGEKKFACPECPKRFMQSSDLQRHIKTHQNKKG
Protocol: as §1

[17] = biological target: ZFP SBS#365 (synthetic)
ZFP SBS#365 (synthetic), sequence (chain, as listed by the source): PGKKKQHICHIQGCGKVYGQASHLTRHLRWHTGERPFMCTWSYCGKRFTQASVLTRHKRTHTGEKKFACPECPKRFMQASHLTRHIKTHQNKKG
Protocol: as §1

[18] = biological target: T10, ZFP SBS#375 (synthetic)
T10 chain: T3 chain with R20Q, S21Q, D22S, E23N, T25A, S52G, D53N, Q78R, G80D, D81N
Protocol: as §1

[19] = biological target: ZFP SBS#251 (synthetic)
Protocol: as §1

[20] = biological target: ZFP SBS#367 (synthetic)
Protocol: as §1

[21] = biological target: ZFP SBS#315 (synthetic)
Protocol: as §1

[22] = biological target: T11, ZFP SBS#312 (synthetic)
T11 chain: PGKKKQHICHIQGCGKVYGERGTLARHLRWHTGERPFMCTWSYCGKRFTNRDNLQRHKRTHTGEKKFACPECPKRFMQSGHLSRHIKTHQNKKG
Protocol: as §1

[23] = biological target: T12, ZFP SBS#316 (synthetic)
T12 chain: T11 chain with N50Q
Protocol: as §1

[24] = biological target: ZFP SBS#314 (synthetic)
ZFP SBS#314 (synthetic), sequence (chain, as listed by the source): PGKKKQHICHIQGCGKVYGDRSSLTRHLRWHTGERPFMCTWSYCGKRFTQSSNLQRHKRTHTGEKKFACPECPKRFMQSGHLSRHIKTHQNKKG
Protocol: as §1

[25] = biological target: T13, ZFP SBS#311 (synthetic)
T13 chain: T11 chain with E20D, G22S, A25T
Protocol: as §1

[26] = biological target: ZFP SBS#309 (synthetic)
ZFP SBS#309 (synthetic), sequence (chain, as listed by the source): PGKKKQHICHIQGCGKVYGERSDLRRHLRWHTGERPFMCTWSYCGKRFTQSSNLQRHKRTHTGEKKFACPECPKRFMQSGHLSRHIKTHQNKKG
Protocol: as §1

[27] = biological target: T14, ZFP SBS#377 (synthetic)
T14 chain: T2 chain with T20Q, H23S, S51G, N53A, R56S, D78R, C79S, R80D, D81A, T84R
Protocol: as §1

[28] = biological target: T15, ZFP SBS#297 (synthetic)
T15 chain: T11 chain with N50R, R51S, N53E, Q55R, Q78D, S79R, G80S, S83Q, R84T
Protocol: as §1

[29] = biological target: ZFP SBS#319 (synthetic, UniProt P08047)
ZFP SBS#319, sequence (P08047 other isoform, or with tags, fused parts or gaps): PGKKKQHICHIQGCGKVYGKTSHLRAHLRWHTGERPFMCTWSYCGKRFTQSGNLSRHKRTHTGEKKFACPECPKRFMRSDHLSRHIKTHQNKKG
Protocol: as §1

[30] = biological target: ZFP SBS#320 (synthetic)
ZFP SBS#320 (synthetic), sequence (chain, as listed by the source): as the sequence (P08047 other isoform, or with tags, fused parts or gaps) above, with K20R, T21S, S22D, R25T, A26R counted along it
Protocol: as §1

[31] = biological target: ZFP SBS#324 (synthetic)
ZFP SBS#324 (synthetic), sequence (chain, as listed by the source): as the sequence (P08047 other isoform, or with tags, fused parts or gaps) above, with K20T, H23N, A26R, N53H, S55Q, R78D, S79R, S83T counted along it
Protocol: as §1

[32] = biological target: ZFP SBS#323 (synthetic)
ZFP SBS#323 (synthetic), sequence (chain, as listed by the source): as the sequence (P08047 other isoform, or with tags, fused parts or gaps) above, with K20T, H23N, A26R, N53H, S55Q, R78D, S79R, S83T counted along it
Protocol: as §1

[33] = biological target: ZFP SBS#321 (synthetic)
ZFP SBS#321 (synthetic), sequence (chain, as listed by the source): as the sequence (P08047 other isoform, or with tags, fused parts or gaps) above, with K20T, H23N, A26R, N53H, S55Q, R78D, S79R, D80S, S83T counted along it
Protocol: as §1

[34] = biological target: ZFP SBS#358 (synthetic)
ZFP SBS#358 (synthetic), sequence (chain, as listed by the source): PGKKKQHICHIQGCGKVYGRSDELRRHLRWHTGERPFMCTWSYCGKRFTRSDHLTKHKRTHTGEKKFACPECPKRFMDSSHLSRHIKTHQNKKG
Protocol: as §1

[35] = biological target: T16, ZFP SBS#318 (synthetic)
T16 chain: T1 chain with D20R, R21S, S22D, T26S, D50R, R51S, S52D, H53N, A81N, R84S
Protocol: as §1

[36] = biological target: ZFP SBS#354 (synthetic)
ZFP SBS#354 (synthetic), sequence (chain, as listed by the source): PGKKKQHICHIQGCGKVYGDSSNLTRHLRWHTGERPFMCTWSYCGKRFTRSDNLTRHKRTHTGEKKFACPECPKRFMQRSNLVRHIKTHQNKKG
Protocol: as §1

[37] = biological target: T17, ZFP SBS#355 (synthetic)
T17 chain: T2 chain with T20E, S21K, G22A, H23N, D78Q, C79R, R80S, D81N, T83V, T84R
Protocol: as §1

B1: GTGGGCTTCA (dsDNA)
DNA 1: GTGGGCTTCA
DNA 2: TGAAGCCCAC
Kd [1]: 60 nM

B2: GGAGGGGTG (dsDNA)
DNA 1: GGAGGGGTG
DNA 2: CACCCCTCC
Kd [2]: 26 nM

B3: TCCGAGGGT (dsDNA)
DNA 1: TCCGAGGGT
DNA 2: ACCCTCGGA
Kd [3]: 332 nM

B4: GCAGCTGCGC (dsDNA)
DNA 1: GCAGCTGCGC
DNA 2: GCGCAGCTGC
Kd [4]: 1.5 nM

B5: GGGTTTGGG (dsDNA)
DNA 1: GGGTTTGGG
DNA 2: CCCAAACCC
Kd [5]: 130 nM | Kd [6]: 200 nM

B6: GAAGAAGCG (dsDNA)
DNA 1: GAAGAAGCG
DNA 2: CGCTTCTTC
Kd [7]: 50.5 nM

B7: GCTTAGGCA (dsDNA)
DNA 1: GCTTAGGCA
DNA 2: TGCCTAAGC
Kd [8]: 4000 nM | Kd [9]: 280 nM | Kd [10]: 135 nM | Kd [11]: 230 nM | Kd [12]: 75 nM | Kd [13]: 230 nM | Kd [14]: 350 nM | Kd [15]: 400 nM | Kd [16]: 4000 nM

B8: GGTGCTGGT (dsDNA)
DNA 1: GGTGCTGGT
DNA 2: ACCAGCACC
Kd [17]: 600 nM

B9: GAGGAAGAT (dsDNA)
DNA 1: GAGGAAGAT
DNA 2: ATCTTCCTC
Kd [18]: 85 nM

B10: GCGGAGGCG (dsDNA)
DNA 1: GCGGAGGCG
DNA 2: CGCCTCCGC
Kd [19]: 27.5 nM

B11: GGGGGCGGG (dsDNA)
DNA 1: GGGGGCGGG
DNA 2: CCCGCCCCC
Kd [20]: 60 nM

B12: GGAGATGCC (dsDNA)
DNA 1: GGAGATGCC
DNA 2: GGCATCTCC
Kd [21]: 265 nM | Kd [22]: 2000 nM | Kd [23]: 3000 nM | Kd [24]: 118 nM | Kd [25]: 170 nM | Kd [26]: 4000 nM

B13: GTGTTGGCAG (dsDNA)
DNA 1: GTGTTGGCAG
DNA 2: CTGCCAACAC
Kd [27]: 89 nM

B14: TGCGCGGCC (dsDNA)
DNA 1: TGCGCGGCC
DNA 2: GGCCGCGCA
Kd [28]: 500 nM

B15: GGGGAAGGG (dsDNA)
DNA 1: GGGGAAGGG
DNA 2: CCCTTCCCC
Kd [29]: 125 nM | Kd [30]: 5 nM

B16: GGCGGAGAT (dsDNA)
DNA 1: GGCGGAGAT
DNA 2: ATCTCCGCC
Kd [31]: 200 nM | Kd [32]: 600 nM | Kd [33]: 200 nM

B17: GGCTGGGCG (dsDNA)
DNA 1: GGCTGGGCG
DNA 2: CGCCCAGCC
Kd [34]: 225 nM

B18: TAGGAGATGC (dsDNA)
DNA 1: TAGGAGATGC
DNA 2: GCATCTCCTA
Kd [35]: 100 nM

B19: GAAGAGGAC (dsDNA)
DNA 1: GAAGAGGAC
DNA 2: GTCCTCTTC
Kd [36]: 28 nM | Kd [37]: 20 nM
